Data published in the DeepSol protein solubility set.

Test: soluble on expression in E. coli; label from the status in PepcDB or PDB records

Sequence	soluble on expression in E. coli
MSTGVKANDVKTKTKGADLVVDCLIKQGVTHVFGIPGAKIDSVFDVLQERGPELIVCRHEQNAAFMAAAIGRLTGKPGVCLVTSGPGTSNLATGLVTANAESDPVVALAGAVPRTDRLKRTHQSMDNAALFEPITKYSVEVEHPDNVPEALSNAFRSATSTNPGATLVSLPQDVMTAETTVESIGALSKPQLGIAPTHDITYVVEKIKAAKLPVILLGMRASTNEVTKAVRALIADTELPVVETYQAAGAISRELEDHFFGRVGLFRNQPGDILLEEADLVISIGYDPIEYDPKFWNKLGDRTIIHLDDHQADIDHDYQPERELIGDIALTVNSIAERLPKLVLSTKSEAVLERLRAKLSEQAEVPNRDSEGVTHPLQVIRTLRSLISDDTTVTCDIGSHSIWMARCFRSYEPRRLLFSNGMQTLGVALPWAIAATLVEPGKKVVSVSGDGGFLFSAMELETAVRLNSPIVHLVWRDGTYDMVAFQQMMKYGRTSATEFGDVDLVKYAESFGATGLRVNTPDELEGVLKSALAADGPVIIDIPIDYRDNIKLSEKLLPNQLN	not soluble
MRLSDAEILHELRHTPLKELGERAYEVKKRLHPKRITTFVVDRNINYTNICWVDCKFCAFKRKLSQEETYILSFEEIDRKIEELIAIGGTQILFQGGVHPELKIEWYENLVSHIAQKFPEITIHGFSAIEVDYIARLSKLSLKETLQRLQAAGLSSIPGAGAEILSDRVRDIIAPKKLSADRWIEVHRTAHQIGMKSTATMMFGTIEEEEDIIEHWRRIRELQEETGGFRAFILWSFQPHHTPLKAEFPHLQKSSSNRYLRLLAASRLYLDNFPNLQSSWVTQGSYIGQMALLFGANDLGSTMMEENVVSAAGARNQMNQEEMIALIKDVGELPAKRNTAYEILERY	not soluble
MGSDKIHHHHHHMQYREFGRTGVKTSLLGFGAMRLPVIGEDHSNIDEEKAIEMIRYAIDHGVNYVDTAYPYHGGNSEKVVGKALKDGYREKVFLATKSPVWQVEKHEDFERILDEQLEKLQTDHVDMYLMHALNKERWEKIKNLRFSDFFEKAKAKGKIRFAGFSFHDSYPVFKEIVDGYDWDFCQIQLNYMDVNYQAGLRGLKYAGSKGLAVVIMEPLKGGKLARLPEKVMEILRKYNKNWSPVELSFRWIGHHPEVSTILSGMSTLEQVKQNIDIMSKITPGNLTDEDMKMIEEIRKTLESFAVINCTQCGYCMPCPNGVDIPGNFRLYNETVMFEDWEGGRRTYKWLESQKSAASFCVECGECLSKCPQKLDIPNLLKKVHRELAEVK	not soluble
MGHHHHHHSHIAMRRDRGPKPALGGAGEVEPGGMAASPTGRPRRLQRYLQSGEFDQFRDFPIFESNFVQVTRLGEVANEVTMGVAASSPALELPDLLLLAGPAKENGHLQLFGLFPLKFVQLFVHDKSRCQLEVKLNTSRTFYLQLRAPLKTRDREFGQWVRLLYRLRFLSASAVPFTQE	not soluble
MQKEPRKVREFRRREQEILDTALKLFLEQGEDSVTVEMIADAVGIGKGTIYKHFKSKAEIYLRLMLDYERDLNELLHSADVDKDKEALSRAYFEFRMRDPQRYRLFDRLEEKVVKGNQVPELVEELHKIRASNFEHLTLLIKGRITEGKLEDVPPYYHYCAAWALVHGAVALYHSPFWSNVLEDQEGFFNFLMDIGVRMGNKRKRDTDVPAEPKPDPDV	not soluble
MANHARVVRGGEMASAQWLQALAAGVEPEVRMNPVLVKPFGERGAQVVVWGKVDPFLSGLPWKERRPHLEAPVREALEGLLAEYDLLVLEGAGSPVERNLWPDLPNLRVAEWADAKALLVADVDQGGALGALYGTWALLGEHRKRLIGFAFNKFRGDLELLKPAYALLRDWTGLPVLGTLPLLPLALPEEDGFRYRQPAGNGPKVALLRYPHAANLDEFWPLSELAQVVYAHSPEEAEGAWLLILPGSRLPARDLPWLRAFLPLIQRHLEAGKPVLAVCGGAEMLSEALLDEEGVEERGHFPGLGLLPYRVRMAREKTVERRRVRLRGLSGYWGRLEGLEVEGYEIHHGQGLPLFHQEGSLLATWLHGLLENPGVQKALFGREARGLEEGLEALADALERHLDLRALHRALGLTGRAFPASPTEAKAPVGCPDPPPPPGLVLLLGGAKSGKSRFAQRLAGPFATLVATAEARDEEMAEKIRRHQEERPPTWETLEAPLDLVGALKRARHPTVVVDCLTLWVANLMERGLDPLLEARRFLSAVEESGKRVIAVSNEVGMGIVPQNPLARRYRDLLGQVNALLAEAAQEAYLLVAGRALPLGGGKVPAQEAKRPGSHGGEPGPGRSRDPGP	soluble
SSHGHSHGGGGCRCAAEREEPPEQRGLAYGLYLRIDLERLQCLNESREGSGRGVFKPWEERTDRSKFVESDADEELLFNIPFTGNVKLKGIIIMGEDDDSHPSEMRLYKNIPQMSFDDTEREPDQTFSLNRDLTGELEYATKISRFSNVYHLSIHISKNFGADTTKVFYIGLRGEWTELRRHEVTICNYEASANPADHRVHQVTPQTHFIS	soluble
MGSDKIHHHHHHMGRAPTMEADMRILLLCWRDTTHPQGGGSERYLEHIAKYLVASGHEVIFRTARHTDASRRAVRDGVEYQYAGGKYSVYVRAAVAQLMGRLGVGRLRGVDVAVDTQNGIPFFARVFSGVPTILLTHHCHRRQWDVAGPLIARLGWFIESKVSPWVHRGVRYVTVSEPSRDELVELGVPAGNITIVRNGIDDPPAPMNLPPVTRPHLVTLSRLVPHKQIEHAIDVVRELDGVVLDIIGSGWWEPQLREYARDVADRVIFHGQVAEDHKHALLAQAAVHVMPSRKEGWGLAVIEAGQHGVPTVGYSHSGGLRDSVRGGGVLVETPAQLTCAIRQLLADQRYRDELGRRAYGFASTFSWEDTGREFLRVIAQPQIPAAAHSTKQPNPR	not soluble
MGHHHHHHSHTVCSLSSGKFGTLLSGSWDTTAKVWLNDKCMMTLQGHTAAVWAVKILPEQGLMLTGSADKTVKLWKAGRCERTFSGHEDCVRGLAILSETEFLSCANDASIRRWQITGECLEVYYGHTNYIYSISVFPNCRDFVTTAEDRSLRIWKHGECAQTIRLPAQSIWCCCVLDNGDIVVGASDGIIRVFTESEDRTASAEEIKAFEKELSHATIDSKTGDLGDINAEQLPGREHLNEPGTREGQTRLIRDGEKVEAYQWSVSEGRWIKIGDVVGS	not soluble
MSLEQVEILRKFIQRVQAMKSPDHNGEDNFARDFMRLRRLSTKYRTEKIYPTATGEKEENVKKNRYKDILPFDHSRVKLTLKTPSQDSDYINANFIKGVYGPKAYVATQGPLANTVIDFWRMIWEYNVVIIVMACREFEMGRKKCERYWPLYGEDPITFAPFKISCEDEQARTDYFIRTLLLEFQNESRRLYQFHYVNWPDHDVPSSFDSILDMISLMRKYQEHEDVPICIHCSAGCGRTGAICAIDYTWNLLKAGKIPEEFNVFNLIQEMRTQRHSAVQTKEQYELVHRAIAQLFEKQLQLYEIHGAQKIADGVNEINTENEGHHHHHH	soluble
MGSDKIHHHHHHMNMNREQLKFCLLGAVFLFGGCTASDPRTHLDSSADTLFQITPDQNHAALERQSGTDQYLKLLLNVAEDAEVKEVQVKPGLVSKDTATLSMPLTDGRTVSFKLSRSDSVASGMVGWVGDMPSNRRQLYPSPAEIDMDPLNWVSLVSDGNLVVGDIRVDGQLYRLTAVGKGQQVLVKVDESKLPPEAAPIPVPVQAQEKTRSLSTSQSRKSTIRVLFVTTHQSRAMFPNYKIELAQALQNANQYLINSKVDAVYELSDIYDSDYDETGKSPQTQLSDMKADKPFGAKIHIEREKGRADLVSMLSTFSIYCGIANLTASVERAFSAISCFGSLGHELGHNMGAGHKDEAPVASLPPYAYGYQHTAPNFHTQMRTSNGAIPYHSNPRLQYQGVPMGTVDKNDVARTFNENRDTVANFYPDPAHRVRLWLYGANRGCFIDLKPGEQALLSWFTECKDNDVNPVRVEVKDFYSGSTPRKLCFANIFYTVNSCYTGSNFSGDFVITSVHTGGGKPEGFKFTRRLIGPVYRVSYE	not soluble
MKVKCEECGETYTLNDGEDPDDYICECGGKLKRETFLRRTALGVGVFSIP	not soluble
MGSDKIHHHHHHMSNEHQLLVGLLKKLKDDALILPTLPEVAMRVQEVVGRPDSSLKQVAEIIGQDAAISARIIKVANSALYSRGVPAENINSAVTRIGLTQIKSIATSVAMEQLFISTNEMVWEVMDEVWRTSIDVTAAACSLLQIYNKKHPGSGLNYDTLTLAGLVHNIGALPVLTEAEAHPEMFTTIEHLRSLVRKMQGPIGRAVLKSWDFAPEVMEVVERWADLPYLGDHVSYLDFIRAAAFYTGELRAGNELEQRLDVFVKRGLPVSPEDLGSDAFLDSYHSIKASYE	not soluble
MGSDKIHHHHHHMCSDHIRLPAQLAAGDVAIRVENLSKRFAVYHTRLERLKHIVAPRRTKGFAEFWALDHVDLTIGRGEACAIIGRNGSGKSTLLQILCGTLRATSGRVAVNGRVAALLELGAGFNADFTGRENVYLNGAVLGLSHTEINERFVEIEAFAEVGDFIDQPVKTYSSGMYVRLAFAIAIHVDPQILIVDEALAVGDARFQAKCLNRIKKMQADGVTLLFVSHDVSAVRTLCDRALWLDCGKVKMLADAFSVTAQYSQFLFEGEDYAVAGNGSGSPQDSSGALQSAASQDISPSAHPEEANQSRAGACGEELMAMHRPINHWGSHVGSIVQAGIYNARGERASTFVAGEPIEVRVIFRPPLNADRKTMSVAFSLKDLRGTDLIVSTTWDQRRLDFEQAGGEACIRFRLRNQLNRGSYLLAVALEDRAGVAPQYYEYIEGAHYFTSLVEDTLFGSFVVDVEQTIEPGHSLYANARVSV	not soluble
MPNLSNRLTLLREKQGWSKAETARRLGLKAPSTYGNWEYGIREPDLDMVTQIATLYDVSVDYLLGQQSIPTYAPSELQGEKDIAKRMIKISEDLRYEDDLNLNGKPLNDSAAHFLADSIDFLYEQAKKLND	not soluble
MKISRETLHQLIENKLCQAGLKREHAATVAEVLVYADARGIHSHGAVRVEYYAERISKGGTNREPEFRLEETGPCSAILHADNAAGQVAAKMGMEHAIKTAQQNGVAVVGISRMGHSGAISYFVQQAARAGFIGISMCQSDPMVVPFGGAEIYYGTNPLAFAAPGEGDEILTFDMATTVQAWGKVLDARSRNMSIPDTWAVDKNGVPTTDPFAVHALLPAAGPKGYGLMMMIDVLSGVLLGLPFGRQVSSMYDDLHAGRNLGQLHIVINPNFFSSSELFRQHLSQTMRELNAITPAPGFNQVYYPGQDQDIKQRKAAVEGIEIVDDIYQYLISDALYNTSYETKNPFAQLEHHHHHH	soluble
MGSSHHHHHHSSGENLYFQGHMDVLASGEKSRMLFERTKELFPGGVNSPVRAAVKPYPFYVKRGEGAYLYTVDGARIVDLVLAYGPLILGHKHPRVLEAVEEALARGWLYGAPGEAEVLLAEKILGYVKRGGMIRFVNSGTEATMTAIRLARGYTGRDLILKFDGCYHGSHDAVLVAAGSAAAHYGVPTSAGVPEAVARLTLVTPYNDVEALERVFAEYGDRIAGVIVEPVIANAGVIPPRREFLAALQRLSRESGALLILDEVVTGFRLGLEGAQGYFNIEGDIIVLGKIIGGGFPVGAVAGSREVMSLLTPQGKVFNAGTFNAHPITMAAGLATLKALEEEPVYSVSREAAKALEEAASEVLDRTGLPYTINRVESMMQLFIGVEEVSNAAQARKADKKFYVKLHEEMLRRGVFIAPSNLEAVFTGLPHQGEALEIAVEGLRSSLKTVLGS	soluble
SLETYGDSLATAVAERWNNHQAFIFGLATGAVVRLIAPLLQSKQSDPAVLVVDAMGQSVISLLSGHQGGGDRLAQIVAEQLQAKAILTGGANGLGQIAVDCLGIPFGWRKGKGDWTAVSSALAAQKLVGVTQTAGLTLWQNHLPPGHGFTFSGTKETTATLLITVQESNLEKLNKPMAPWHPRLLWIGVGCVRGTDLALLERALLEVLERENLSPLAIAGLASVHLKADEVGMQQFAQKYDLPFFTFPPEQLAAQAVPNPSEVVLQEVGTPSVAEAAALTAAQMYSQGGKLIAEKVIVKQHNQAVTVAIAKGE	not soluble
